Experimental data from US20100167314A1 (JAPAN SCIENCE AND TECHNOLOGY AGENCY, published 2010).

T1: myc-tagged CPSF160 subunit of mouse CPSF (mouse, UniProt Q9EPU4 1-1441, limits assumed)
T1 construct: Co-expressed with IRBIT in COS cells; not shown: myc tag
T1 sequence (looked up): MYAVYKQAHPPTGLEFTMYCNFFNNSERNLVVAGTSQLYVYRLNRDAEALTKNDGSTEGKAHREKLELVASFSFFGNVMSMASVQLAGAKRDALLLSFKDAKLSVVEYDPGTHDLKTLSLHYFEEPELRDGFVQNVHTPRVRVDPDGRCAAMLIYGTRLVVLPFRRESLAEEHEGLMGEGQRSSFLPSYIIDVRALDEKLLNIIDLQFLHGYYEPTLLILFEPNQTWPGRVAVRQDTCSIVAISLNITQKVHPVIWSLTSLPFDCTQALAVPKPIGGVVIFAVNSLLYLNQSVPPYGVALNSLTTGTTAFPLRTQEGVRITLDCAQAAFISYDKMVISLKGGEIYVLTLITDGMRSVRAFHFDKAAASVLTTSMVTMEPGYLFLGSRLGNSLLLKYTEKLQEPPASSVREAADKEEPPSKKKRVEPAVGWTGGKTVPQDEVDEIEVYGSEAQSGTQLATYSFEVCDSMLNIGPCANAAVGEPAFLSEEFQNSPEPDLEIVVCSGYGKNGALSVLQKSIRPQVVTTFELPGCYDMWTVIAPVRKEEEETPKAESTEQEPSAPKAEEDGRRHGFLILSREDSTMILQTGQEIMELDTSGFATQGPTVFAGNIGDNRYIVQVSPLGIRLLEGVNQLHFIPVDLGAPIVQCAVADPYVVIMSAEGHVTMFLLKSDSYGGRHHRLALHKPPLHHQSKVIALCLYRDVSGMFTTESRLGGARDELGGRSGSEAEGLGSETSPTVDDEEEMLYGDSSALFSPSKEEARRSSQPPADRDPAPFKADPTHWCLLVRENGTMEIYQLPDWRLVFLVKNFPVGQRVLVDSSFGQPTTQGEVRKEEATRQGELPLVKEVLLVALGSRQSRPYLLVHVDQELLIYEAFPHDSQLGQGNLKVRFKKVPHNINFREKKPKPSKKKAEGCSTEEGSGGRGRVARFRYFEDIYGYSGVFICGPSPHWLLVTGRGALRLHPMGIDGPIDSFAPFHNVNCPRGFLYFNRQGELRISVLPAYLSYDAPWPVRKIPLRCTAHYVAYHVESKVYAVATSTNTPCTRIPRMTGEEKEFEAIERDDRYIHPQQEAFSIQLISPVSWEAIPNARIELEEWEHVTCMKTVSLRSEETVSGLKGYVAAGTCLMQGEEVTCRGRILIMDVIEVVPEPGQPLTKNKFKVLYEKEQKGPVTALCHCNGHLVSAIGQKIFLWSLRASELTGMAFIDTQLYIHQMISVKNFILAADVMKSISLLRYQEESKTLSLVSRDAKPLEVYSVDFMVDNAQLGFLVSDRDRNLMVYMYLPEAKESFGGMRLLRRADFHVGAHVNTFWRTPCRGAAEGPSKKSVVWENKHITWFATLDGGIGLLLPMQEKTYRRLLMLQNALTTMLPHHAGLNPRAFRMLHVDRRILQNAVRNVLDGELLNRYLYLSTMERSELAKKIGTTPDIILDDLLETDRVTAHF

B1: mouse IRBIT (IP3 receptor-binding protein; IP3R-binding protein released with inositol 1,4,5-trisphosphate) (other)
chain: MSMPDAMPLPGVGEELKQAKEIEDAEKYSFMATVTKAPKKQIQFADDMQEFTKFPTKTGRRSLSRSISQSSTDSYSSAASYTDSSDDEVSPREKQQTNSKGSSNFCVKNIKQAEFGRREIEIAEQDMSALISLRKRAQGEKPLAGAKIVGCTHITAQTAVLIETLCALGAQCRWSACNIYSTQNEVAAALAEAGVAVFAWKGESEDDFWWCIDRCVNMDGWQANMILDDGGDLTHWVYKKYPNVFKKIRGIVEESVTGVHRLYQLSKAGKLCVPAMNVNDSVTKQKFDNLYCCRESILDGLKRTTDVMFGGKQVVVCGYGEVGKGCCAALKALGAIVYITEIDPICALQACMDGFRVVKLNEVIRQVDVVITCTGNKNVVTREHLDRMKNSCIVCNMGHSNTEIDVTSLRTPELTWERVRSQVDHVIWPDGKRVVLLAEGRLLNLSCSTVPTFVLSITATTQALALIELYNAPEGRYKQDVYLLPKKMDEYVASLHLPSFDAHLTELTDDQAKYLGLNKNGPFKPNYYRY
notes: also called Mouse-derived IRBIT
B2: mouse cerebellum PIPKIIα (enzyme, UniProt O70172 2-405, looked up)
chain: ATPGNLGSSVLASKTKTKKKHFVAQKVKLFRASDPLLSVLMWGVNHSINELSHVQIPVMLMPDDFKAYSKIKVDNHLFNKENMPSHFKFKEYCPMVFRNLRERFGIDDQDFQNSLTRSAPLPNDSQARSGARFHTSYDKRYVIKTITSEDVAEMHNILKKYHQYIVECHGVTLLPQFLGMYRLNVDGVEIYVIVTRNVFSHRLSVYRKYDLKGSTVAREASDKEKAKELPTLKDNDFINEGQKIYIDDNNKKIFLEKLKKDVEFLAQLKLMDYSLLVGIHDVERAEQEEVECEENDGEEEGESDSTHPIGTPPDSPGNTLNSSPPLAPGEFDPNIDVYAIKCHENAPRKEVYFMAIIDILTHYDAKKKAAHAAKTVKHGAGAEISTVNPEQYSKRFLDFIGHIL
notes: Endogenous protein coprecipitated with an anti-IRBIT antibody

Assays:
[1] = biological target: T1, myc-tagged CPSF160 subunit of mouse CPSF; assay: co-expression in COS cells, co-immunoprecipitation, detection with anti-IRBIT and anti-myc antibodies
Description: CPSF is a group of conjugated proteins consisting of 4 subunits: CPSF160, CPSF100, CPSF73, and CPSF30. First, to reveal to which one of the 4 subunits IRBIT binds, myc-tagged cDNAs prepared by tagging each subunit with myc were expressed together with IRBIT in various combinations by COS cells or the like and then the way in which coprecipitation occurs upon immunoprecipitation of IRBIT or CPSF was examined.
DNA was prepared by fusing DNA encoding an myc tag to cDNA encoding the full-length of or each subunit of CPSF. The thus prepared DNA was inserted into a vector for mammals. Meanwhile, cDNA encoding IRBIT was also inserted into the same vector. COS cells were transformed with the thus prepared vector and then the above DNA was co-expressed.
Cells were separated by centrifugation and then lysed. Cytoplasmic fractions were collected and then the binding of IRBIT to CPSF was detected using an anti-IRBIT antibody (JP2004-129612 A) and an anti-myc antibody.

[2] = biological target: B1; assay: immunoprecipitation from mouse cerebellum with anti-IRBIT antibody
Description: (1) Mouse IRBIT and Myc-PIPKIIα, β, or γ were over-expressed in COS-7, followed by immunoprecipitation. Specifically, cells were solubilized with a lysis buffer (10 mM Hepes, 100 mM NaCl, 2 mM EDTA, 1% P-40, pH 7.4) and then centrifuged (20000×g, 30 minutes) to collect supernatants. Subsequently, an anti-Myc antibody or an anti-IRBIT antibody was added and then reaction was performed for 1 hour. Furthermore, protein G Sepharose® was added before one hour reaction, and the immune complex was washed with a lysis buffer and then eluted with a SDS-PAGE sample buffer. Subsequently, Western blotting was performed using an anti-Myc antibody or an anti-IRBIT antibody. As a result, IRBIT was coprecipitated with Myc-PIPKIIα, β, and γ (FIG. 4). (2) Immunoprecipitation was performed using an anti-IRBIT antibody and the mouse cerebellum, so that PIPKIIα was coprecipitated (FIG. 5). The in vivo binding of IRBIT with PIPKII was confirmed based on the results. (3) Mouse IRBIT and Myc-PIPKIIγ were overexpressed in COS-7 and then immunostaining was performed. Specifically, after fixation with 4% paraformaldehyde, transmembrane treatment with 0.1% Triton X-100 and blocking treatment with 2% goat serum were performed, a mouse anti-Myc antibody and a rabbit anti-IRBIT antibody were added, and then reaction was performed at room temperature for 1 hour. […]

Row | Binder | binding result [1] | binding result [2]
1 | B1 | binds | –
2 | B2 | – | binds
